Measurements reported in article PMC9986708.

Assays:
[1] = biological target: apolipoprotein E ɛ2 (apoE ɛ2) (human (endogenous in plasma)) (UniProt P02649); assay: non-reducing SDS-PAGE with western blot
[2] = biological target: apolipoprotein E ɛ3 (apoE ɛ3) (human (endogenous in plasma)) (UniProt P02649); assay: non-reducing SDS-PAGE with western blot

| Substance | stoichiometry N [1] | stoichiometry N [2] |
| --- | --- | --- |
| apolipoprotein E ɛ2 (apoE ɛ2) (from UniProt P02649 19-317) (natural protein) | 2 |  |
| apolipoprotein E ɛ3 (apoE ɛ3) (from UniProt P02649 19-317) (natural protein) |  | 2 |
